In the supplement of paper PMC10567573:

B1: SAT2 (parent)
chain: IIKKVAEVALDKGCSQFRLAVLDW
B2: GFOD1 (parent)
chain: SDDFCTFQMVLEGGVCCTVTLNFN

Variants of: B1
Experiment: protein stability index of a GFP-peptide fusion (GPS, HEK-293T) (PSI 1-6); higher = more stable
Conditions: c terminus: a fixed tail appended
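Note: lentivirally expressed fusions sorted by FACS into six bins by GFP to DsRed ratio, PSI derived from sequencing read proportions per bin multiplied by bin number.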

Variant | protein stability index
IIKKVAEVALDKGCSQFRLAVKDW | 2
IIKQVAEVALDKGCSQFRLAVLDW | 2.45
IIKYVAEVALDKGCSQFRLAVLDW | 2.95
IIKGVAEVALDKGCSQFRLAVLDW | 1.54
IIKPVAEVALDKGCSQFRLAVLDW | 1.31
IIKWVAEVALDKGCSQFRLAVLDW | 3.9
IIKEVAEVALDKGCSQFRLAVLDW | 3.05
IIKKVAEVALDKGCSQKRLAVLDW | 2.69
IIKKVAEVALDKGCSQPRLAVLDW | 3.25
IIKKVAEVALDKGCSQMRLAVLDW | 4.35
IIKKVAEVALDKGCSQSRLAVLDW | 1.03
IIKKVAEVALDKGCSQDRLAVLDW | 3.24
IIKKVAEVALDKGCSQTRLAVLDW | 3.18
IIKKVAEMALDKGCSQFRLAVLDW | 2.59
IIKKVAEPALDKGCSQFRLAVLDW | 1.7
IIKKVAENALDKGCSQFRLAVLDW | 2.01
IIKKVAEEALDKGCSQFRLAVLDW | 1.2
IIKKVAEHALDKGCSQFRLAVLDW | 2.58
IIKKVAEWALDKGCSQFRLAVLDW | 2.76
IIKKVAEQALDKGCSQFRLAVLDW | 2.94
IIKKVAECALDKGCSQFRLAVLDW | 1.99
IIKKVAEKALDKGCSQFRLAVLDW | 1.6

Variants of: B2
Experiment: as above
Conditions: c terminus: a fixed tail appended

Variant | protein stability index
SDDFCTFQMVLEGGVCCTVTLNPN | 1.56
SDDFCTFQMVLEGGVCCTVTLNNN | 4.1
SDDFCTFQMVLEGGVCCTVTLNIN | 3.75
SDDFCTFQMVLEGGVCCTVTLNQN | 1.24
SDDFCTFQMVLEGGVCCTVTLNYN | 3.05
SDDFCTFQMVLEGGVCCTVTLNEN | 3.16
SDDFCTFQMVLEGGVCCTVTLNGN | 2.44
SDDFCTFQMVLEGGVCCTVTLNSN | 2.62
SDDFCTFQMVLEGGVCCTVTLNLN | 2.8
SDDFCTFQMVLEGGVCCTVTLNAN | 2.62
SDDFCTFQMVLEGGVCCTVTLNDN | 2.19
SDDFCTFQMVLEGGVCCTVTLNHN | 2.43
SDDFCTFQMVLEGGVCCTVTLRFN | 2.43
SDDFCTFQMVLEGGVCCTVTLQFN | 4.04
SDDFCTFQMVLEGGVCCTVTLHFN | 2.62
SDDFCTFQMVLEGGVCCTVTLWFN | 2.88
SDDFCTFQMVLEGGVCCTVTLPFN | 2.9
SDDFCTFQMVLEGGVCCTVTLDFN | 2.09
SDDFCTFQMVLEGGVCCTVTLIFN | 3.6
SDDFCTFQMVLEGGVCCTVTLEFN | 1.62
SDDFCTFQMVLEGGVCCTVTLCFN | 3.25
SDDFCTFQMVLEGGVCCTVTLLFN | 2.04
SDDFCTFQMVLEGGVCCTVTLYFN | 2.33
SDDFCTFQMVLEGGVCCTITLNFN | 3.22

Variant | protein stability index
SDDFCTFQMVLEGGVCCTYTLNFN | 2.38
SDDFCTFQMVLEGGVCCTNTLNFN | 2.07
SDDFCTFQMVLEGGVCCTETLNFN | 2.11
SDDFCTFQMVLEGGVCCTGTLNFN | 2.02
SDDFCTFQMVLEGGVCCTRTLNFN | 1.9
SDDFCTFQMVLEGGVCCTPTLNFN | 2.12
SDDFCTFQMVLEGGVCCTFTLNFN | 2.73
SDDFCTFQMVLEGGVCCTLTLNFN | 3.49
SDDFCTFQMVLEGGVCCTHTLNFN | 2.41
SDDFCTFQMVLEGGVCCTWTLNFN | 2.61
SDDFCTFQMVLEGGVCCTDTLNFN | 2.65
SDDFCTFQMVLEGGVCCTTTLNFN | 3.14
SDDFCTFQMVLEGGVCCTQTLNFN | 1.75
SDDFCTFQMVLEGGVCCTKTLNFN | 1.22
SDDFCTFQMVLEGGVCCTSTLNFN | 2.07
SDDFCTFQMVLEGGVCCTVTLNFW | 3.94
SDDFCTFQMVLEGGVCCTVTLNFQ | 1.99
SDDFCTFQMVLEGGVCCTVTLNFC | 2.91
SDDFCTFQMVLEGGVCCTVTLNFT | 2.47
SDDFCTFQMVLEGGVCCTVTLNFP | 3
SDDFCTFQMVLEGGVCCTVTLNFL | 3.23
SDDFCTFQMVLEGGVCCTVTLNFA | 3.67
SDDFCTFQMVLEGGVCCTVTLNFR | 3.43
SDDFCTFQMVLEGGVCCTVTLNFS | 2.05

Variant | protein stability index
SDDFCTFQMVLEGGVCCTVTLNFF | 3.55
SDDFCTFQMVLEGGVCCTVCLNFN | 1.75
SDDFCTFQMVLEGGVCCTVPLNFN | 1.49
SDDFCTFQMVLEGGVCCTVHLNFN | 2.03
SDDFCTFQMVLEGGVCCTVLLNFN | 1.03
SDDFCTFQMVLEGGVCCTVQLNFN | 3.57
SDDFCTFQMVLEGGVCCTVMLNFN | 2.71
SDDFCTFQMVLEGGVCCTVWLNFN | 2.71
SDDFCTFQMVLEGGVCCTVYLNFN | 1.97
SDDFCTFQMVLEGGVCCTVFLNFN | 3.21
SDDFCTFQMVLEGGVCCTVNLNFN | 3.6
SDDFCTFQMVLEGGVCCTVTGNFN | 2.41
SDDFCTFQMVLEGGVCCTVTMNFN | 2.22
SDDFCTFQMVLEGGVCCTVTPNFN | 2.02
SDDFCTFQMVLEGGVCCTVTQNFN | 1.93
SDDFCTFQMVLEGGVCCTVTANFN | 2.61
SDDFCTFQMVLEGGVCCTVTFNFN | 2.73
SDDFCTFQMVLEGGVCCTVTDNFN | 1.75
SDDFCTFQMVLEGGVCCTVTINFN | 3
SDDFCTFQMVLEGGVCCTVTENFN | 1.63
SDDFCTFQMVLEGGVCCTVTNNFN | 1.35
SDDFCTFQMVLEGGVCCTVTRNFN | 1.55
SDDFCTFQMVLEGGVCCTVTYNFN | 1.69
SDDFCTFQMVLEGGVCCTVTSNFN | 1.84
